Experimental data published in patent publication US20210238276A1 (INTEGRAL MOLECULAR, published 2021).
Changes are numbered by the printed parent chain.

What was measured:
Experiment in all cases: flow cytometry, alanine-scan library in HEK-293T, with cytochalasin B
hsGLUT4 R416A = biological target: T1, hsGLUT4 R416A (human, UniProt P14672 1-509)
T1 sequence: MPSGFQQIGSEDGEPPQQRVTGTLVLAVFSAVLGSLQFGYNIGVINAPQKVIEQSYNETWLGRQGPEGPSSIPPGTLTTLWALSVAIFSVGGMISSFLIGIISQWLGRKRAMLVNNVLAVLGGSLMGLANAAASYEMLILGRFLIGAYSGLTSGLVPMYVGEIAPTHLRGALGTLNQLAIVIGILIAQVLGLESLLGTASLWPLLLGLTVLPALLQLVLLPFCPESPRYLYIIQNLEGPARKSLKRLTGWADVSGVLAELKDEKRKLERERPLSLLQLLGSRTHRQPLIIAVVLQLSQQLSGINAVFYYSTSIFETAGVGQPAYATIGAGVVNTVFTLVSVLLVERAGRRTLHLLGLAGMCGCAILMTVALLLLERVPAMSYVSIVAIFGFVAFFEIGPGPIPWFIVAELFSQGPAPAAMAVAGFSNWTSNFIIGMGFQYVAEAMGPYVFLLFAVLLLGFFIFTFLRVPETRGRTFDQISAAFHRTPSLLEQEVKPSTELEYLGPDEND
Procedure, shortened: (§1)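 HEK-293T cells expressing individual GLUT4 alanine mutants were stained 48 h post-transfection with anti-GLUT4 scFv MAbs (2 μg/ml), then biotinylated secondary and streptavidin-PerCP, and read by high-throughput flow cytometry. Where used, cytochalasin B (10 uM final) was given for 30 min before and during primary antibody staining.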

hsGLUT4 Y502A = biological target: T2, hsGLUT4 Y502A (human, UniProt P14672 1-509)
T2 sequence: T1 sequence with A416R, Y502A
Procedure, shortened: as §1

hsGLUT4 G504A = biological target: T3, hsGLUT4 G504A (human, UniProt P14672 1-509)
T3 sequence: T1 sequence with A416R, G504A
Procedure, shortened: as §1

hsGLUT4 I313A = biological target: T4, hsGLUT4 I313A (human, UniProt P14672 1-509)
T4 sequence: T1 sequence with I313A, A416R
Procedure, shortened: as §1

B1: AB102 (Fc fusion)
scFv: ALTQPSSVSANLGGTVKITCSGGGSYGYGWYQQKSPGSAPVTVIYSNDQRPSDIPSRFSGSKSGSTATLTITGVRAEDEAIYYCGSTDSDYVGIFGAGTTLTVLGQSSRSSGGGGSSGGGGSAVTLDESGGGLQTPGGTLSLVCKASGFDFSSYATIWVRQAPGKGLEWVAGISGTGTGSSTGYAPAVKGRATISRDNGQSTVRLQLNNLRAEDTGSYFCAKSTGYGDSWIYPDSIDAWGHGTEVIVSS
notes: also called MAb AB102; not shown: Fc fragment of human IgG1, cloned in frame with the scFv
% of binding to wild type GLUT4 (hsGLUT4 R416A): 70%
% of binding to wild type GLUT4 (hsGLUT4 Y502A): 94%
% of binding to wild type GLUT4 (hsGLUT4 G504A): 71%
% of binding to wild type GLUT4 (hsGLUT4 I313A): 15%
